According to the supplement of paper PMC9170038:

Test system: MS2 coat protein
Assay: apparent KD of MS2 coat protein; designed switch direction (-1 OFF switch, 1 ON switch): -1; higher = weaker reporter binding
How it was run: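 RNA switches sharing common flanks were transcribed by stalled E. coli RNA polymerase on Illumina chips. A doubling series of SNAP-549-labelled MS2 coat protein, from 0.7 or 1.5 nM to 3 µM, was applied in Tris-HCl pH 7.5 buffer with KCl, MgCl2, BSA, DTT, tRNA and Tween-20. Each step lasted 0.8–1.5 h at the bottom of the series and 10–20 min at the top. Normalised cluster fluorescence was curve-fitted, giving apparent KD as the per-design median over clusters.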

[1] = input ligand: microRNA oligo, concentration not stated
[2] = Eterna round: R95, input ligand: FMN 200 uM
[3] = Eterna round: R95, input ligand: microRNA oligo, concentration not stated
[4] = Eterna round: R95, input ligand: none

Sequence	apparent KD of MS2 coat protein (input ligand: FMN 200 uM)	apparent KD of MS2 coat protein (input ligand: none)	apparent KD of MS2 coat protein [1]	apparent KD of MS2 coat protein [2]	apparent KD of MS2 coat protein [3]	apparent KD of MS2 coat protein [4]
AAAGGGUGAGGAUAUCCAUCUGGAUCAGACUAGAUCCUGAUGGAGAAGGCACAUGAGGAUCACCCAUGUGAGUU [Eli 4x 4.33] (Eterna round: R97, puzzle: Exclusion 4)	112 nM	99.2 nM				
AAAGUCCUAGGAGGAUAUCACCUGCCUAGCACAUGAGAAGGCCUAGGAGACAUGAGGAUCACCCAUGUGUCCUUAGUCGAAAAU [Ensobedi] (Eterna round: R96, puzzle: Exclusion NG 1)	19.5 nM	13.2 nM	9.59 nM			
AAAGUUGCCUACGGUGUGCACAUGAGGAUCACCCAUGUACCUCCAUGGCAGUGCCAAUAAUUAUGCUCGUCACUACA [Eternabot (L1) Solution 18] (Eterna round: R97, puzzle: Sensor, turn-off variant 1)	14.9 nM	14.2 nM				
AAAUAAACAAGCAACUCGAACAUGAGGAUCACCCAUGUAAAGGGUGAAUCGUCCACCCAAAAAAAAAAUAAAAAAAA [Mat - Sensor v2 - Eli mod - 132] (Eterna round: R96, puzzle: Sensor v2, turn-off variant)	57.7 nM	55.9 nM	116 nM			
AAAUAACAAGCAGGAUCCUACAUGAGGAUCACCCAUGUGCUCGUCUUAUAAAGUACUAUCACGAAAGUGAUAGUACU [Mat - Sensor v3 - turn-off var 1 - Eli Mod - D72] (puzzle: Sensor v3, turn-off variant 1)				153 nM	93 nM	156 nM
AAAUAAUAGAUAAAAUAAAACAUGAGGAUCACCCAUGUGGGAUGUUGAGGGUGAUACAAGCUUUUUGCUCGUCUUAU (puzzle: Sensor v3, turn-off variant 1)				233 nM	45.6 nM	271 nM
AAAUAGAAUGAGGAUAUCGUAUUGUAUUUAGUGCGAGAAGGCAUUACAUGAGGAUCACCCAUGUUUUGUUGGGA [JR_Ex6_Sub003] (Eterna round: R97, puzzle: Exclusion 6)	89.1 nM	32.3 nM				
AAAUAGCGAGGAUAUACUCCAAUAGCAAAUAUUCCCAUGGCACAUGAGGAUCACCCAUGUAGAAGGCGCAGUAA (Eterna round: R97, puzzle: Exclusion 2)	54.2 nM	44.4 nM				
AAAUCUGCUGAGGAUAUGAUGACUGAGAGGUCAUCAGAAGGCGGUACAUGAGGAUCACCCAUGUCUAUGGGCAA [Ex-6 Malc#30] (puzzle: Exclusion 6)					243 nM	
AAAUGUUCGGAGGAUAUAGAACGAUUGUCCGAGCUAGAAGGCCGAACAUGAGGAUCACCCAUGUGUACCUUAAA [Tibiares] (puzzle: Exclusion 6)				306 nM	40.1 nM	53.7 nM
AAAUGUUGUAAGGAUAUUGAAUAAGAAAACUUACGAGAAGGUGCGACAUGAGGAUCACCCAUGUUCCCAAAGGG [Alacar 2] (Eterna round: R97, puzzle: Exclusion 6)	31.5 nM	30.4 nM				
AAAUUCAGAGGAUAUGCGCAUAGAUAAGACUUUGUUUCUUAACAUGAGGAUCACCCAUGUAGAAGGCUGUACAA [Ex2 #68] (Eterna round: R97, puzzle: Exclusion 2)	16.1 nM	13.4 nM				
AAAUUGCUAGAGGAUAUCGGAUAGGAUUUAUUACGAGAAGGUUAGACAUGAGGAUCACCCAUGUUCUGUUGGGA [EX6 #24] (Eterna round: R97, puzzle: Exclusion 6)	89.5 nM	36.9 nM				
AAAUUGUGAGGAUAUCCAAUAUAUGACAUGAGGAUCACCCAUGUUUCCACUCGUACCUCCGGAGAAGGCACUGCAA [Ex5 #39] (Eterna round: R97, puzzle: Exclusion 5)	22.3 nM	27.2 nM				
AACACGGGAGGAUAUGCGACAGGAAACAUGAGGAUCACCCAUGUGGAUGGUCGUACAAACGUAGAAGGCCCGCCCA [Eternabot (Original) Solution 1] (Eterna round: R97, puzzle: Exclusion 5)	12.9 nM	15.3 nM				
AACAGUCUAGAGGAUAUGUGGGAUUAAUAUCUUGCAGAAGGCUGGACAUGAGGAUCACCCAUGUAAAUACUACC [Omei Ex6 A15] (Eterna round: R97, puzzle: Exclusion 6)	80.8 nM	32.9 nM				
AACCCGAUAGGAUAUACUUGAGGAUCACCCAAGUACGCCUGCAAUGCAAGCGCCUGAAGUAGAAGGAUCAAAAG [Gexetele] (Eterna round: R97, puzzle: Exclusion 3)	21 nM	31.1 nM				

Sequence	apparent KD of MS2 coat protein (input ligand: FMN 200 uM)	apparent KD of MS2 coat protein (input ligand: none)	apparent KD of MS2 coat protein [1]	apparent KD of MS2 coat protein [2]	apparent KD of MS2 coat protein [3]	apparent KD of MS2 coat protein [4]
AACCUACAUGAGGAUCACCCAUGUGAGGAUAUAUUGUUAUUUAUAAUAUUUUUUAGUGGUAGAAGGCGCGUGAU [JR_Exc1_Sub019] (Eterna round: R97, puzzle: Exclusion 1)	21 nM	18.5 nM				
AACCUGAGGCUUUGCUUUAGGUUUACAUGAGGAUCACCCAUGUAGGAUAUGGUAGGCUUUGCUUACCAGAAGGACAUGAUAAUU [Mat - Exclusion NG 3 - Mod of JL - D27] (Eterna round: R96, puzzle: Exclusion NG 3)	215 nM	43.8 nM	33 nM			
AACGAGGCAGGAUAUACAUGAGGAUCACCCAUGUGCUUGCAUGGCGUGGGAAGUCAUCGUAGAAGGGCUAUGCC [EX3 #64] (Eterna round: R97, puzzle: Exclusion 3)	210 nM	283 nM				
AACGUGUAAGGAUAUCUGCUUAUGCUCGGCAAUGCACCGAUAGAGAAGGUACAUGAGGAUCACCCAUGUUCCAA [EX4 A.16] (Eterna round: R97, puzzle: Exclusion 4)	16.7 nM	15.8 nM				
AACGUGUAAGGAUAUGCUGCUCGUCACGAAAGUGAUGAGUAGCAGAAGGUACAUGAGGAUCACCCAUGUAAAGA [Exclusion 4.1f (Exclusion4-cac2 - changed GC at 6/50 to AU )] (Eterna round: R96, puzzle: Exclusion 4)	91.6 nM	22.2 nM	19 nM			
AACUCGUUAGGAUAUACCGCCAACGAUACCUCGUGAAACAUACAUGAGGAUCACCCAUGUAGAAGGAGCGAGCA [Vearbe] (puzzle: Exclusion 2)					15.7 nM	
AACUGACAUGAGGAUCACCCAUGUCAGGAUAUGCUUCAUAAAAACAAACAAAAAUGAUGCAGAAGGGACAUGGA [Design 30 :P Sub-opt 6] (Eterna round: R96, puzzle: Exclusion 1)			14.3 nM			
AAGAAACAUGAGGAUCACCCAUGUCAGGAUAUCUCGAAAAGCAUAGAAAUAUGCGAAGAGAGAAGGGACUAUCC [ChP Ext 10-04-2015 #3] (puzzle: Exclusion 1)				22.7 nM	23.7 nM	31.6 nM
AAGAAACAUGAGGAUCACCCAUGUGAGGAUAUGAAAAAGAAAAGAAAAGAAAGAAGACUCAGAAGGCACAAAGG [salish99-ex1_r3_022] (puzzle: Exclusion 1)				33.3 nM	48.5 nM	45.7 nM
AAGAAACAUGAGGAUCACCCAUGUGAGGAUAUGAAAAAGAAAAGAAAAGAAAGAAGCAUCAGAAGGCACAAAGG [salish99-ex1_r3_026] (puzzle: Exclusion 1)				36.1 nM	32.1 nM	31.1 nM
AAGAAACAUGAGGAUCACCCAUGUGAGGAUAUGAAAAAGAAAAGAAAAGAAAGAAGCUUCAGAAGGCACAAAGG [salish99-ex1_r3_030] (puzzle: Exclusion 1)				38 nM	27.5 nM	39.4 nM
AAGAAACAUGAGGAUCACCCAUGUGAGGAUAUGUAAAAUAAAAGAAAAUAAAGAAUAAACAGAAGGCACAAAGG [Mat - Mod of Hog D23] (puzzle: Exclusion 1)				48 nM	46.5 nM	43.5 nM
AAGAAAGGUGACAUGGGUGACAUGAGGAUCACCCAUGUUACAAGCUUGUUGCUCGUCUUAUAAUUAACCCAUGUCAU [LRO Sensor-off var1-19 mod of Stov1-13-A1 by Brourd] (Eterna round: R97, puzzle: Sensor, turn-off variant 1)	55.3 nM	64.6 nM				
AAGAACGGUAAGGAUAUCCAUGUGAAAUAAAGAGGAGAAGGUACCACAUGAGGAUCACCCAUGUGGCUCUCAAA [EX6 B.30] (Eterna round: R97, puzzle: Exclusion 6)	13.8 nM	11.5 nM				
AAGAACGUACAAGGAUAUCUCCACCACAACGGCAGAGAAGGUGUACAUGAGGAUCACCCAUGUGACCGAAGGCCCUUAUGGGCC [Xeerergeza] (Eterna round: R96, puzzle: Exclusion NG 1)	79.8 nM	29.6 nM	20.6 nM			
AAGACACAUGAGGAUCACCCAUGUGAGGAUAUUCGAUGCUAAGCGUAAGCUUAGUAUCGGAGAAGGCACAAAGG [Salishxclusion 6 - Jieux - Exclusion 1] (Eterna round: R97, puzzle: Exclusion 1)	128 nM	48.2 nM				
AAGACGCGUGUAAGGAUAUCGAAAGCCCGAGGCGACGAGAAGGUACAUGAGGAUCACCCAUGUGCAGAUCACAA [BmEX4 B.3] (Eterna round: R97, puzzle: Brourd's mod of Exclusion 4)	18.9 nM	17.3 nM				
